The values below are quoted from earlier work in PMC5427998 (Chemical Science, 2017).

Bridges are numbered along the chain shown (N, C = ends). Where no end group is shown, it is not given here.

The conditions of this series: 95 °C.

On to “Microcin J25 (GGAGHVPEYFVGIGTPISFYG; lactam N-8; UniProt Q9X2V7 38-58, looked up) [MccJ25]”, for which the “thermal denaturation / retention of threaded structure” value is “did not denature”.
